The text below walks through data of patent US20220002407A1.

The experiment concerns the target CD19 on CD19-positive human tumor cells (Raji, Raji-Luc, NALM6, Reh) (human) (UniProt P15391). Briefly: cell-based or functional assay.

CD19 on CD19-positive human tumor cells (Raji, Raji-Luc, NALM6, Reh) (human), sequence (P15391 20-556): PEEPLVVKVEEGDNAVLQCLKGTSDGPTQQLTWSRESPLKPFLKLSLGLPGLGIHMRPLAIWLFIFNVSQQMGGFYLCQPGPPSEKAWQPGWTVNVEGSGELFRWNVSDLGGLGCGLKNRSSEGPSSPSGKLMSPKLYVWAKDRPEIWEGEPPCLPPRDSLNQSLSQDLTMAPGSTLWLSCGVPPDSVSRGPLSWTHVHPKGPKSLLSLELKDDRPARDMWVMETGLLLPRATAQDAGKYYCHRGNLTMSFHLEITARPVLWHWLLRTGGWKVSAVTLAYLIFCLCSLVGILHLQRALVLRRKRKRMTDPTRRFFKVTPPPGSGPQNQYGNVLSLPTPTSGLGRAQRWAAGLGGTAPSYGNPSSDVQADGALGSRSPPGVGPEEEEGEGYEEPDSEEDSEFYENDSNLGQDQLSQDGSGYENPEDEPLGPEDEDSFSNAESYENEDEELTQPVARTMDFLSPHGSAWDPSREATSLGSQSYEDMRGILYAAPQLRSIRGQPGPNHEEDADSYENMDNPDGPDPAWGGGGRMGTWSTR

Regarding “bispecific antibody blinatumomab (Blincyto, Amgen)”, the EC50 of activation of NFAT-RE luciferase reporter Jurkat T cells in the presence of Raji target cells was determined as 2.71 nM, the EC50 to mediate CIK to kill different tumor cells (NALM6) is 0.0773 nM, the EC50 to mediate CIK to kill different tumor cells (Reh) amounted to 0.0119 nM and the EC50 to mediate CIK to kill tumor cells (Raji-LUC) turned out to be 0.000595 nM. The substance further yielded an EC50 to mediate CIK to kill tumor cells (Raji-LUC, second row without label) of 0.00565 nM; an EC50 to mediate PBMCs to kill tumor cells (Raji-LUC) of 0.00545 nM; an EC50 to mediate PBMCs to kill tumor cells (Raji-LUC, second row without label) of 0.0212 nM; an EC50 to mediate PBMCs to kill tumor cells (Raji-LUC, third row without label) of 0.0226 nM.
